The text below walks through data of patent WO2007030708A2 (dated 2007).

The target in the assay is T1, S-TNF, human TNFα fusion protein with an N-terminal S-Tag (human, UniProt P01375 77-233).
T1 construct: Made, expressed and purified by the applicants; not shown: 15 amino acid S-Tag peptide (Novagen)
The experiment in a line: indirect ELISA: sp55 from conditioned medium captured on Ni-NTA wells, S-TNF at 1 μg/mL, S-protein-HRP detection, absorbance at 370 nm.

T1 sequence (P01375 77-233): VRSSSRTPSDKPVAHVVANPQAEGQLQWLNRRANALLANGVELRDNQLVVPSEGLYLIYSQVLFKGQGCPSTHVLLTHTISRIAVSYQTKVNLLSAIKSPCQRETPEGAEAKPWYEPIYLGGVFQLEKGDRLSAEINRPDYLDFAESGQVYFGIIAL

B1: sp55, soluble TNF receptor p55: ecto-domain of human TNFR-1 (residues 30-211) with C-terminal myc and His6 tags (receptor)
chain: DAAQPARRAVRSLVPHLGDREKRDSVCPQGKYIHPQNNSICCTKCHKGTYLYNDCPGPGQDTDCRECESGSFTASENHLRHCLSCSKCRKEMGQVEISSCTVDRDTVCGCRKNQYRHYWSENLFQCFNCSLCLNGTVHLSCQEKQNTVCTCHAGFFLRENECVSCSNCKKSLECTKLCLPQIENVKGTEDSGTTRGGPEQKLISEEDLNSAVDHHHHHH
notes: Used as conditioned medium of transfected 293T cells; also called p55FL-myc-his; p55L
On to B1, for which the “fold elevation in S-TNF binding over non-specific binding in control samples” value amounted to 3 fold.
